Source: the supplement of paper PMC10567573

B1: RAB11A (parent)
chain: AVPTDEARAFAEKNGLSFIETSAL
B2: KRT71 (parent)
chain: ELRNVQDVVEDYKKRYEEEINKRT

Variants of: B1
Assay: protein stability index of a GFP-peptide fusion (GPS, HEK-293T) (PSI 1-6); higher = more stable
Conditions: c terminus: a fixed tail appended
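Note: lentivirally expressed fusions sorted by FACS into six bins by GFP to DsRed ratio, PSI derived from sequencing read proportions per bin multiplied by bin number.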

Going from T21L to T21M, the protein stability index rises from 2.46 to 2.64.

First: T21N
Second: T21P
The protein stability index of the first is higher: 2.47 for the first, 2.15 for the second.

Going from T21Q to T21R, the protein stability index falls from 3.75 to 2.5.

First: T21S
Second: T21V
The protein stability index of the first is higher: 3.11 for the first, 2.12 for the second.

Going from T21W to T21Y, the protein stability index falls from 2.39 to 1.5.

Compared with S22A, S22C is higher in protein stability index: 2.35 for the first, 2.54 for the second.

First: S22D
Second: S22E
The protein stability index of the first is lower: 3.84 for the first, 4.01 for the second.

Compared with S22F, S22G is higher in protein stability index: 2.27 for the first, 2.91 for the second.

First: S22H
Second: S22I
The protein stability index of the first is higher: 2.22 for the first, 1.76 for the second.

Going from S22K to S22L, the protein stability index falls from 3.44 to 2.5.

Going from S22M to S22N, the protein stability index rises from 1.95 to 3.38.

First: S22P
Second: S22Q
The protein stability index of the first is higher: 3.73 for the first, 3.14 for the second.

Going from S22R to S22T, the protein stability index rises from 2.25 to 2.49.

Going from S22V to S22W, the protein stability index falls from 2.64 to 1.6.

S22Y and A23C are the same in protein stability index: 2.08 for the first, 2.08 for the second.

Going from A23D to A23E, the protein stability index falls from 4.18 to 3.68.

First: A23F
Second: A23G
The protein stability index of the first is lower: 1.66 for the first, 3.49 for the second.

First: A23H
Second: A23I
The protein stability index of the first is higher: 2.04 for the first, 1.65 for the second.

First: A23K
Second: A23L
The protein stability index of the first is higher: 2.42 for the first, 1.9 for the second.

Going from A23M to A23N, the protein stability index rises from 1.81 to 2.87.

Going from A23P to A23Q, the protein stability index falls from 2.82 to 2.52.

First: A23R
Second: A23S
The protein stability index of the first is lower: 2.04 for the first, 2.79 for the second.

First: A23T
Second: A23V
The protein stability index of the first is lower: 2.08 for the first, 2.12 for the second.

First: A23W
Second: A23Y
The protein stability index of the first is lower: 1.55 for the first, 1.81 for the second.

Compared with L24A, L24C is lower in protein stability index: 4 for the first, 3.07 for the second.

Compared with L24D, L24E is higher in protein stability index: 4.79 for the first, 5.03 for the second.

First: L24F
Second: L24G
The protein stability index of the first is lower: 2.73 for the first, 5.05 for the second.

Compared with L24H, L24I is lower in protein stability index: 4.06 for the first, 2.34 for the second.

Compared with L24K, L24M is lower in protein stability index: 3.53 for the first, 3.08 for the second.

Going from L24N to L24P, the protein stability index rises from 4.47 to 4.62.

First: L24Q
Second: L24R
The protein stability index of the first is higher: 3.47 for the first, 2.63 for the second.

First: L24S
Second: L24T
The protein stability index of the first is higher: 4.39 for the first, 3.98 for the second.

Compared with L24V, L24W is lower in protein stability index: 3.31 for the first, 2.72 for the second.

L24Y gave a protein stability index of 3.04.

Variants of: B2
Assay: as above
Conditions: c terminus: a fixed tail appended

Going from V8Q to V9D, the protein stability index rises from 4.19 to 4.93.

Compared with V5P, E19C is lower in protein stability index: 5.56 for the first, 3.9 for the second.

Compared with K14G, T24K is lower in protein stability index: 4.76 for the first, 4.43 for the second.

First: R23I
Second: K22H
The protein stability index of the first is higher: 3.72 for the first, 3.68 for the second.

First: I20H
Second: N21D
The protein stability index of the first is higher: 4.07 for the first, 3.8 for the second.

Going from N4M to T24P, the protein stability index rises from 3.77 to 4.39.

First: K14A
Second: N4E
The protein stability index of the first is lower: 3.17 for the first, 4.45 for the second.

Going from Y12W to E19N, the protein stability index falls from 3.98 to 2.71.

Compared with E10P, Y12D is higher in protein stability index: 3.41 for the first, 4.2 for the second.

First: D11L
Second: E18R
The protein stability index of the first is lower: 3.95 for the first, 4.26 for the second.

First: N4G
Second: K13F
The protein stability index of the first is lower: 3.65 for the first, 4.07 for the second.

First: Y16H
Second: V8M
The protein stability index of the first is higher: 3.75 for the first, 3.23 for the second.

First: E17Q
Second: E19R
The protein stability index of the first is lower: 3.8 for the first, 4.11 for the second.

First: V8G
Second: N21H
The protein stability index of the first is lower: 3.49 for the first, 4.26 for the second.

Going from I20E to R23V, the protein stability index rises from 3.6 to 3.93.

Compared with V5K, E1S is higher in protein stability index: 3.75 for the first, 4.07 for the second.

Going from V9L to E10Y, the protein stability index rises from 3.03 to 3.26.

Compared with D11E, T24Q is higher in protein stability index: 3.5 for the first, 4.56 for the second.

First: T24D
Second: Q6F
The protein stability index of the first is higher: 4.64 for the first, 4.1 for the second.

First: Y12R
Second: T24I
The protein stability index of the first is lower: 3.66 for the first, 4.02 for the second.

Compared with N21V, K22P is lower in protein stability index: 4.3 for the first, 3.47 for the second.

First: E10A
Second: Y12N
The protein stability index of the first is lower: 3.17 for the first, 4.89 for the second.

Compared with R15W, K13V is lower in protein stability index: 3.67 for the first, 3.25 for the second.

Going from R15F to D7L, the protein stability index falls from 3.67 to 3.54.

First: K22Q
Second: I20Y
The protein stability index of the first is higher: 4.35 for the first, 3.15 for the second.

Going from V9A to Q6C, the protein stability index falls from 3.69 to 2.77.

Compared with T24M, R23C is higher in protein stability index: 3.54 for the first, 3.84 for the second.

Going from T24A to K13C, the protein stability index falls from 3.08 to 2.71.

Going from Q6G to E10T, the protein stability index rises from 3.36 to 4.45.

Compared with D7V, E18G is lower in protein stability index: 3.23 for the first, 3.16 for the second.

First: D11R
Second: D11K
The protein stability index of the first is higher: 3.29 for the first, 2.82 for the second.

Going from R23F to I20A, the protein stability index rises from 3.71 to 4.88.

Going from E17D to K14T, the protein stability index rises from 3.23 to 3.65.

Compared with V8I, E17S is higher in protein stability index: 3.45 for the first, 3.86 for the second.

Going from N21R to Y16D, the protein stability index rises from 3.92 to 4.38.

First: R15P
Second: K13A
The protein stability index of the first is higher: 4.78 for the first, 4.07 for the second.

First: E18Q
Second: E18A
The protein stability index of the first is lower: 3.3 for the first, 3.54 for the second.

First: N4F
Second: V8L
The protein stability index of the first is lower: 3.11 for the first, 4.3 for the second.

First: V5H
Second: L2M
The protein stability index of the first is higher: 4.37 for the first, 3.99 for the second.

Compared with E17M, Y16R is higher in protein stability index: 3.02 for the first, 3.59 for the second.

First: Q6M
Second: R3M
The protein stability index of the first is lower: 3.14 for the first, 4.14 for the second.

Going from K22Y to D7P, the protein stability index falls from 3.43 to 3.17.

Compared with E17A, T24G is higher in protein stability index: 2.84 for the first, 3.94 for the second.

First: E18F
Second: E1Q
The protein stability index of the first is lower: 3.42 for the first, 4.03 for the second.

Going from E18L to V5C, the protein stability index rises from 2.91 to 3.98.

Going from R23H to R3W, the protein stability index falls from 4.09 to 3.47.

First: D7K
Second: E10I
The protein stability index of the first is lower: 3.28 for the first, 3.54 for the second.

Compared with T24V, N4I is higher in protein stability index: 3.69 for the first, 4.37 for the second.

First: T24W
Second: E17V
The protein stability index of the first is lower: 3.62 for the first, 3.93 for the second.

Going from E1C to V5A, the protein stability index rises from 2.23 to 3.8.
